Source: article PMC10952621, “Long QT syndrome‐associated calmodulin variants disrupt the activity of the slowly activating delayed rectifier potassium channel” (The Journal of Physiology, 2023)

Target: human wild-type calmodulin (CaM-WT) (human, UniProt P0DP23 2-149)
Assay: ITC; Kv7.1-HA peptide titrated into CaM (~50 uM) in the cell; 50 mM Na-HEPES, 100 mM KCl, 2 mM MgCl2, pH 7.5, 5 mM CaCl2; 25 °C; one-site binding model
Settings: both partners purified

B1: Kv7.1-HA(370-389) peptide, helix A of the KCNQ1 C-terminus (peptide)
peptide: AAASLIQTAWRCYAAENPDS
notes: source: synthetic peptide (GenicBio, HPLC purified, >95% purity)
- Kd: ~96 µM
